From patent publication US20190330277A1 come the findings set out here.

What all share (experiment): ELISA, variant from culture supernatant on Ni-NTA plate
On the technique in general: An ELISA detects its analyte on a solid surface through an enzyme-linked reagent.

Assay [1] concerns the target 391-2-DS-Cav1_ sc9_T449C-V459C.
The target in another assay is RB94 DS-Cav1 Long FdPL.
Assay [2] addresses sc9-10_DS-CAV1_bRSV(RB94)_Fd_hp1_fp2_ig1.

Consider motavizumab (antibody), for which the results for the ELISA binding value (in assay [1]; with RB94 DS-Cav1 Long FdPL; in assay [2]) were 0.49, 0.841 and 1.8, respectively.
